# Results as given in IntAct's records for PubMed 28319063.
# B1: Partner and localizer of BRCA2 (Mus musculus), Q3U0P1 (parent)
# chain: MEELSGKPLSYAEKEKLKEKLAFLKKEYSRTLARLQRAKRAEKAKNSKKAIEDGVPQPEASSQLSHSESINKGFPCDTLQSNHLDEETGENISQILDVEPQSFNCKQGKEVLHTPRAGDIQGQLLHSTSSPDGKKEQNTLPGTTKTPWEKSSVSQEKEDYFDTNSLALLGKHRKGQESISRKNSRTPVSEKTHLLSLRSQIPDPPALVTGIGEGILIPPSGKSERGIDTLVRGNTVSAEAAVPSCTASNSNHSQHLEHTPPKSGCKITTQGPASSTNLVAQDQKMTIFTVNSVVYKAVRAHGQLPGSPNSCSVNDLTHSNLPANSTPNSKSLKSPSNTVDERNEPLQEDEILGPSKNFNLAAVSPPSTESQIHSCTMLEGLLFPAEYYVRTTRRMSDCQRKIALEAVIQSHLGVKKKELKKKTKATKAVVLSSEDTDQSESGMLDTSTGQSSSGSLSQKLLSPAEVSSPPGPAGKATTPPPGRGHRGKRKSARTSTLGHCQLLFPPCAALAVNRSKGKFTKHKCQNRGVVIHDFELPDEDFGLLKLEKLKSCSEKLIESPDSKNCGERLPREGNHAALEELQRDSETEGLEEELTVPPGEAYRPGPTLRRQPGSKDLSSSIVLFTPADTAAPNDSGRPPPSLCSPAFPILGMTPALGSQAAGETLSTEAAQPCSTSQPPLLGDTNSLVNNSKQCNSSACSPKPDTNLQASGRQGQPACDSDSGPQATPLPVESFTFRENQLCGNACLELHEHSTEQTETADRPACDNLNPGNLQLVSELKNPSSSCSVDVSAMWWERAGAKEPCIVTACEDVVSLWKPLNSLQWEKVHTWHFTEVPVLQIVPVPDVYNLICVALGSLEIREIRALLCSSGDDSEKQVLLKSGDIKAMLGLTKRRLVSSTGTFCNQQIQIMTFADDGSSKDEQLLMPPDETVLTFAEVQGTQEALLGTTTVNSIVIWNLKTGQLLKKMHIDDSYQASVCHGAYSEKGLLFVVVSQPCAKESQALGSPVFQLLVINPKTAQSVGVLLCSLPQGQAGRFLEGDVKDHVAAAVLTSGTIAIWDLLLGHCTALLPPVSDQSWSLVKWSGTDSHLLAGQKDGNIFIYRYF
# Variants of: B1
# Details: with brca1_human BRCA1, P38398
# brca1_human BRCA1, P38398, sequence (P38398 whole entry, looked up): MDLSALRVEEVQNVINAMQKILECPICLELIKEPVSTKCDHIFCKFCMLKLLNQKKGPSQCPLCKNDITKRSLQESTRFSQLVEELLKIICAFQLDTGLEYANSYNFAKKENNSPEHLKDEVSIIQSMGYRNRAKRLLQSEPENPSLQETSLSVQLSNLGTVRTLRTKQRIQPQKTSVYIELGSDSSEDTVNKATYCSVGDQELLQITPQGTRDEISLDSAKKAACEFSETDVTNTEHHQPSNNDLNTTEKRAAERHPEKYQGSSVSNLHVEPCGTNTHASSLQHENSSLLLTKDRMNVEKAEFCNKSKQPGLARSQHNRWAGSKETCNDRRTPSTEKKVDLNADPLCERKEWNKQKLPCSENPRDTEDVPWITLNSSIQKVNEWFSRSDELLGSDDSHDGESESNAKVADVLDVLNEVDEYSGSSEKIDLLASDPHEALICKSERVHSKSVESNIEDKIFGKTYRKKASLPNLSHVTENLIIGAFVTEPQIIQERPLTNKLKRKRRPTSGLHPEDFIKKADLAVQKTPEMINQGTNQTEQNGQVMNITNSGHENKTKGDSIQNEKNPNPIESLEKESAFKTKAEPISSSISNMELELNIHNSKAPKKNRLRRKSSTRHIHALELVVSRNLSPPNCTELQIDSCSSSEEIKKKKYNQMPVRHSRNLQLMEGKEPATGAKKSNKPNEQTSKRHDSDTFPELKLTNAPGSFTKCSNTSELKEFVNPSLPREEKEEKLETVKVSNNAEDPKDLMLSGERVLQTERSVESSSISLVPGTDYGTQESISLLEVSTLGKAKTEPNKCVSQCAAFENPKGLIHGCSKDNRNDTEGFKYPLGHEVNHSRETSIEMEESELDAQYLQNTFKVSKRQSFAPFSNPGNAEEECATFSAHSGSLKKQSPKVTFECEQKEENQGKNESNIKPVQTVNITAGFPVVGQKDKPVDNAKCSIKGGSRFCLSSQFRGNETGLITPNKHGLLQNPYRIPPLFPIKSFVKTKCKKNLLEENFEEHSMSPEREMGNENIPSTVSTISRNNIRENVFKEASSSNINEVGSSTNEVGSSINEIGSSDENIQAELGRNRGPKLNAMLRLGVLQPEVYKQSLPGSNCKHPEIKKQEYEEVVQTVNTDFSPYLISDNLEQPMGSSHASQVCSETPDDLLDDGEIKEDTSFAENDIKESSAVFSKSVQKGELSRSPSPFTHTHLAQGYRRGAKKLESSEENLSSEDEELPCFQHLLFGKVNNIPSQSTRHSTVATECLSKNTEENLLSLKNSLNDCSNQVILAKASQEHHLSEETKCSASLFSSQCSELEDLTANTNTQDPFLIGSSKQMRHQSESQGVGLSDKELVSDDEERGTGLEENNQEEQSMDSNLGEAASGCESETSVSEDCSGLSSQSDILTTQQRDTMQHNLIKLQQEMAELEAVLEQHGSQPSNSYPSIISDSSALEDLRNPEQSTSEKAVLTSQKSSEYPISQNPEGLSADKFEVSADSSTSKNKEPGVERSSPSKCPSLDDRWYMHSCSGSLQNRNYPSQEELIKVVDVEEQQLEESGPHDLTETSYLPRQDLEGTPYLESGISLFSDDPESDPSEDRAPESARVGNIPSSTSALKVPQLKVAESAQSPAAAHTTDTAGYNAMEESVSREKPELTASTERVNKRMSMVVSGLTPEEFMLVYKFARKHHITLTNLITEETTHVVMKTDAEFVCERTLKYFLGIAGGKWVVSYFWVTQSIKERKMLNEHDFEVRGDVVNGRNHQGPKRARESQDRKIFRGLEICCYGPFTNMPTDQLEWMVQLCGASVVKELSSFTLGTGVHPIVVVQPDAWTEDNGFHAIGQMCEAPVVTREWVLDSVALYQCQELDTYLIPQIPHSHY
row,Variant,effect of a mutation on the interaction
1,R37H,with no effect
2,L35P,disrupting interaction
3,Y28C,disrupting interaction
4,K18R,with no effect
